The supplement of paper PMC9732359
± gives the uncertainty stated by the source.

Assay: protein stability index of a GFP-peptide fusion (yeast GPS) (PSI 1-4); higher = more stable; sorted into four equal gates, so the index is relative within each strain
Summary of the method: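 Yeast carrying a pooled library were grown to mid-log phase in leucine-free medium. Each library plasmid expresses Cherry and has a tiled 17-residue yeast protein peptide fused downstream of GFP. Cells were sorted into four equal gates by GFP/Cherry ratio, and plasmids from each gate were PCR-amplified, Illumina-sequenced and assigned to strains by barcode. Summing, across gates, the read frequency times the gate number gave each peptide's protein stability index.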

Sequence	protein stability index (doa10∆)	protein stability index (pdr5∆)	protein stability index (san1∆)	protein stability index (ubr1∆)
SDAAKEPPGSNTSFSFT [YOR098C/NUP1]	1.58 ± 0.046	1.96 ± 0.048	2.33 ± 0.053	1.91 ± 0.045
WRAHDSSIVAIDWASPE [YGL100W/SEH1]	2.55 ± 0.092	2.8 ± 0.1	2.83 ± 0.078	2.79 ± 0.068
KPQFENHVKQFYERLDK [MED11]	2.87 ± 0.12	2.46 ± 0.19	2.57 ± 0.088	2.17 ± 0.17
QNDQWSIQMEFMLRKQD [SSN2]	2.53 ± 0.071	2.58 ± 0.088	2.4 ± 0.12	2.81 ± 0.074
NSDLEGKIRGVEDDLVT [SMC2]	3.14 ± 0.094	3.33 ± 0.064	3.15 ± 0.067	3.24 ± 0.051
SAILLSETDKRQFLHEL [RPO31]	2.6 ± 0.069	2.49 ± 0.051	2.88 ± 0.087	2.63 ± 0.052
DATYDSALELVGQLNKV [RPN6]	3.11 ± 0.16	3.1 ± 0.11	3.27 ± 0.21	2.72 ± 0.28
TQEQFVKRRRDMLEHIN [SRB4]	–	2.06 ± 0.27	–	1.26 ± 0.089
MKLNILDERFASRVALN [IRR1]	1.54 ± 0.051	2.31 ± 0.062	2.17 ± 0.11	2.03 ± 0.054
LPLDSQDDEYVKDWLYD [PRP8]	3.44 ± 0.15	3.39 ± 0.088	3.35 ± 0.099	3.1 ± 0.053
YASLKLPNQIPGEYITT [YMR129W/POM152]	1.97 ± 0.049	2.19 ± 0.059	2.07 ± 0.057	2.09 ± 0.036
LDSDSENDLSFALMRYY [RRI2]	2.8 ± 0.068	2.89 ± 0.063	2.85 ± 0.057	2.91 ± 0.047
VVEKKTVGSSNGGLIHV [RPO21]	2.97 ± 0.081	3.07 ± 0.079	2.8 ± 0.053	3 ± 0.055
YKVLKNNGLPECQVIAA [YCG1]	1.42 ± 0.09	2.1 ± 0.14	1.35 ± 0.16	1.95 ± 0.062
GYALRDVQARRQFVSNV [RPP1]	–	1.99 ± 0.16	–	–
GVMSLLQKSSKSMITSE [YAR002W/NUP60]	2.46 ± 0.06	2.61 ± 0.062	2.19 ± 0.076	2.95 ± 0.063
RYDYSDEVGRRSMLTVV [YCG1]	2.02 ± 0.067	1.73 ± 0.062	2.91 ± 0.094	1.97 ± 0.05
RQFLHELRRPGVDNLRR [RPO31]	1.27 ± 0.078	1.37 ± 0.097	1.25 ± 0.23	1.64 ± 0.093
RSTMMKFLKIASLKHDN [RPN3]	2.18 ± 0.067	2.43 ± 0.072	2.86 ± 0.089	3.01 ± 0.057
SQVEDFTRIFLPIYDSL [SIR3]	2.67 ± 0.059	2.64 ± 0.045	2.49 ± 0.059	2.36 ± 0.036
SSTGGGLFGNKPALGSL [YGR119C/NUP57]	3.33 ± 0.1	3.44 ± 0.088	3.4 ± 0.048	3.41 ± 0.056
DVAAKCKEVGITAVHVK [RPS14A]	2.56 ± 0.057	2.81 ± 0.065	2.72 ± 0.062	2.62 ± 0.041
KGSRKSSKAATPDTKNF [SNF12]	3 ± 0.063	2.87 ± 0.052	3 ± 0.058	2.98 ± 0.042
EVEKAHPIRLYTRYLDR [PRP8]	3.11 ± 0.082	2.51 ± 0.068	2.35 ± 0.078	2.94 ± 0.048
AQADKQDISSSTRVEFE [FAS2]	3.12 ± 0.081	3.17 ± 0.068	3.08 ± 0.06	3.33 ± 0.055
YPKLTLDFQTNKRLCDE [RPS17A]	3.11 ± 0.073	3.06 ± 0.064	3.06 ± 0.044	3.23 ± 0.059

Sequence	protein stability index (doa10∆)	protein stability index (pdr5∆)	protein stability index (san1∆)	protein stability index (ubr1∆)
EVTKLLKNEGIDLDHKR [SMC4]	3.08 ± 0.12	3.2 ± 0.17	–	3.55 ± 0.1
THNSYEKACQVLKYMLL [RPN6]	2.18 ± 0.076	2.44 ± 0.073	2.23 ± 0.087	3.26 ± 0.071
DAIYRELTKNPNSNVEL [SMC1]	3.31 ± 0.3	2.91 ± 0.15	3.33 ± 0.088	3.38 ± 0.13
SETADETLENNIVSVLT [RPN11]	2.73 ± 0.11	2.94 ± 0.076	2.75 ± 0.11	2.78 ± 0.097
LKLEKLNTNRTFAQEKL [SMC3]	2.84 ± 0.07	3.08 ± 0.069	2.83 ± 0.098	2.93 ± 0.057
NQEDEKNLQRESCEDIL [RTT102]	–	–	–	3.17 ± 0.2
NNNVTAVPAATPANTNN [SWI1]	2.79 ± 0.046	3.08 ± 0.046	2.76 ± 0.032	2.98 ± 0.042
ETEQEYSPSNEISISFD [YDL116W/NUP84]	2.65 ± 0.058	2.89 ± 0.067	2.52 ± 0.059	2.98 ± 0.048
PKSLNSNININVNNNNI [SWI1]	3.03 ± 0.14	2.63 ± 0.12	3.04 ± 0.066	2.81 ± 0.098
AKMNAKTDFAKIINKPN [RPC82]	1.8 ± 0.069	1.79 ± 0.092	1.58 ± 0.17	1.62 ± 0.069
RSTRIRTKSQVIEEDYD [IRR1]	2.89 ± 0.15	3.22 ± 0.082	3.42 ± 0.078	3.43 ± 0.11
KSGKTIVITSITGGIIE [RRP43]	1.6 ± 0.072	1.84 ± 0.077	2.07 ± 0.1	1.78 ± 0.1
MKNPDVEFCGYSIPHPS [RPC19]	2.81 ± 0.082	3.11 ± 0.064	2.94 ± 0.049	3.04 ± 0.085
IGTGEHIHDLEKFSPKS [SRP54]	2.33 ± 0.067	2.43 ± 0.053	2.9 ± 0.053	2.03 ± 0.042
LKVNVTLDNPLLVDKDA [YJL039C/NUP192]	3.02 ± 0.077	2.93 ± 0.065	3 ± 0.041	2.7 ± 0.051
SSDAFEKLKVNMEKEKD [YIL149C/MLP2]	3.05 ± 0.071	3.19 ± 0.094	3.33 ± 0.057	3.23 ± 0.062
GDVVLAAAYSHELPRYG [RPL5]	2.83 ± 0.073	2.95 ± 0.068	2.99 ± 0.061	2.97 ± 0.074
LYGVTICYNKKTEYVLN [REC8]	1.3 ± 0.058	1.3 ± 0.14	1.14 ± 0.13	1.34 ± 0.062
LQNKPDAKKARFWSFMK [SIR4]	2.55 ± 0.098	2.68 ± 0.13	2.61 ± 0.093	2.17 ± 0.19
PKDSSSTFREWKNLVLK [YJR042W/NUP85]	3.29 ± 0.11	2.76 ± 0.12	3 ± 0.065	3.16 ± 0.088
AQAFVELENSSPELKAE [RPS7A]	3.08 ± 0.23	–	–	–
MANTGCLSPGAFLSKVP [SRP14]	2.56 ± 0.076	2.3 ± 0.091	2.74 ± 0.14	2.52 ± 0.061
TIVQLCKKKEMSQYQST [YIL149C/MLP2]	1.88 ± 0.063	2.14 ± 0.061	1.76 ± 0.091	1.8 ± 0.052
TKYTDDMATGSNDTTAF [SRB8]	3.04 ± 0.086	3.14 ± 0.087	3.45 ± 0.057	3.29 ± 0.058
YKNEDVTALLEQGFKVV [YCS4]	2.8 ± 0.1	3.08 ± 0.1	2.93 ± 0.097	2.74 ± 0.091
YLLPDDFHFSTDRITRL [BRN1]	2.43 ± 0.056	2.5 ± 0.056	2.6 ± 0.063	2.79 ± 0.048
